The source of these data is article PMC3223204, “Implantation Serine Proteinase 1 Exhibits Mixed Substrate Specificity that Silences Signaling via Proteinase-Activated Receptors” (PLoS ONE, 2011).

The target of the assay is T1, rat PAR2 (Rattus norvegicus, UniProt Q63645).
T1 construct: expressed in transfected cells; host or cells: KNRK (Kirsten virus-transformed normal rat kidney) cells
T1 sequence (Q63645 26-397): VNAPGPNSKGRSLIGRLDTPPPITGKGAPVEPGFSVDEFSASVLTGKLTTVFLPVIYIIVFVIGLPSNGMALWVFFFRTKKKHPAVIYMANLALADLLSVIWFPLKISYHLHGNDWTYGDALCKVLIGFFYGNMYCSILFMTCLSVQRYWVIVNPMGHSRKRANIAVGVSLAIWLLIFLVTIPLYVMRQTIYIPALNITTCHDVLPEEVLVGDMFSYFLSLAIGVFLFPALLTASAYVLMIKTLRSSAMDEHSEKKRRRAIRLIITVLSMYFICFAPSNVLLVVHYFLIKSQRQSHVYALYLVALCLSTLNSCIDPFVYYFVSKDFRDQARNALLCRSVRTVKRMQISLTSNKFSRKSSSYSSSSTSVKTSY
Briefly: Calcium signaling assay, PAR2 activation/disarming in KNRK cells. The class given is cell-based. The source says:
The Kirsten virus-transformed normal rat kidney (KNRK) epithelial cell line expressing wild-type rat PAR2 (KNRKrPAR2), validated previously for studies of receptor activation was used to evaluate the PAR2-regulating properties of the ISP1 by the methods described previously. Human embryonic kidney cells (HEK293) that express the SV40 T-antigen were kindly provided by Dr. Jonathan Lytton, University of Calgary, Faculty of Medicine, Calgary (Alberta) Canada. The human HEK293 cells, that constitutively express both PAR1 and PAR2, were grown under similar conditions as described for the KNRK cells, but in the absence of geneticin, as outlined for the PAR-mediated calcium signaling procedure described previously. All cells were sub-cultured by dissociation in an isotonic EDTA/saline solution, pH 7.4, without the use of trypsin, to avoid cleavage of PARs.
Cell lines (grown to about 85% confluence and disaggregated with calcium-free isotonic phosphate-buffered saline containing 0.2 mM EDTA) and rat platelets (harvested from platelet-rich anti-coagulated plasma) were prepared and used as previously described. Cells were incubated for 25 min at room temperature with Fluo-3 acetoxymethyl ester (final concentration, 22 µM) along with 0.4 mM sulfinpyrazone. Cells were washed twice by centrifugation (using the following buffer without calcium) and resuspended in the calcium signaling buffer: 150 mM NaCl, 3 mM KCl, 1.5 mM CaCl2, 20 mM HEPES, 10 mM dextrose, and 0.25 mM sulfinpyrazone, pH 7.4.
Fluorescence was measured at 24 °C with an excitation wavelength of 480 nm and an emission recorded at 530 nm using an Aminco Bowman Series 2 Luminescence spectrometer (ThermoSpectronic Model FA354, Spectronic Unicam, Rochester, NY). The fluorescence signals caused by the addition of test agonists (trypsin, PAR-activating peptide or rISP1, added to 2 ml of a cell suspension of ~3 x 10^5 cells/ml) were compared with the fluorescence peak height yielded by replicate cell suspensions treated with 2 µM ionophore A23187. This concentration of A23187 was at the plateau of its concentration-response curve for a fluorescence response in Fluo-3-loaded cultured cells. Under these conditions, the calculated values for intracellular calcium in the HEK and KNRK cells were [picture] […]
Previous work has shown that the fluorescence response of a cell preparation, as a percentage relative to the signal generated by 2 µM A23187, is a valid reference standard for the comparative determination of calcium signals for all PAR agonists. The cellular calcium response was therefore recorded as a percentage of the response generated by 2 µM ionophore A23187 [6]. […]
Receptor activation was monitored as an enzyme-stimulated increase in fluorescence emission (E530). […]

B1: ISP1: recombinant implantation serine proteinase 1 expressed in Pichia pastoris, also known as Mouse Prss28 (protein, UniProt Q924N9 27-274, looked up)
Serine protease 28: KPVGIVGGQRTPPGKWPWQVSLRMYSYEVNSWVHICGGSIIHPQWILTAAHCIQSQDADPAVYRVQVGEVYLYKEQELLNISRIIIHPDYNDVSKRFDLALMQLTALLVTSTNVSPVSLPKDSSTFDSTDQCWLVGWGNLLQRVPLQPPYQLHEVKIPIQDNKSCKRAYRKKSSDEHKAVAIFDDMLCAGTSGRGPCFGDSGGPLVCWKSNKWIQVGVVSKGIDCSNNLPSIFSRVQSSLAWIHQHIQ
modifications: recombinant, Pichia pastoris-expressed
notes: recombinant implantation serine proteinase 1 expressed in Pichia pastoris, also known as Mouse Prss28
Consider B1, for which the “Cellular response to PAR2-activating peptide after ISP1 pre-treatment” value (SLIGRL-NH2 (10 µM), concentration-dependent) is on record as “diminished”. Also, the “Activation of a calcium signal via PAR2” value (enzyme alone) was “did not activate a calcium signal”. Where the note is “pre-treatment with 5 Units/ml ISP1, then trypsin (1.0 units/ml)”, the “residual PAR2 activity triggered by trypsin” value is listed as roughly 80%. Further, the “residual PAR2 activity (% of control)” value (pre-treatment with 20 units ISP1/ml, then trypsin (1.0 units/ml)) was roughly 40%.
